The results in this text go back to patent US7807620 (TRUSTEES OF COLUMBIA UNIVERSITY IN THE CITY OF NEW YORK, dated 2010).

The experiment addresses T1, recombinant native hFSH receptor (human, UniProt P23945 18-695).
T1 construct: whole, on cells
T1 sequence (looked up): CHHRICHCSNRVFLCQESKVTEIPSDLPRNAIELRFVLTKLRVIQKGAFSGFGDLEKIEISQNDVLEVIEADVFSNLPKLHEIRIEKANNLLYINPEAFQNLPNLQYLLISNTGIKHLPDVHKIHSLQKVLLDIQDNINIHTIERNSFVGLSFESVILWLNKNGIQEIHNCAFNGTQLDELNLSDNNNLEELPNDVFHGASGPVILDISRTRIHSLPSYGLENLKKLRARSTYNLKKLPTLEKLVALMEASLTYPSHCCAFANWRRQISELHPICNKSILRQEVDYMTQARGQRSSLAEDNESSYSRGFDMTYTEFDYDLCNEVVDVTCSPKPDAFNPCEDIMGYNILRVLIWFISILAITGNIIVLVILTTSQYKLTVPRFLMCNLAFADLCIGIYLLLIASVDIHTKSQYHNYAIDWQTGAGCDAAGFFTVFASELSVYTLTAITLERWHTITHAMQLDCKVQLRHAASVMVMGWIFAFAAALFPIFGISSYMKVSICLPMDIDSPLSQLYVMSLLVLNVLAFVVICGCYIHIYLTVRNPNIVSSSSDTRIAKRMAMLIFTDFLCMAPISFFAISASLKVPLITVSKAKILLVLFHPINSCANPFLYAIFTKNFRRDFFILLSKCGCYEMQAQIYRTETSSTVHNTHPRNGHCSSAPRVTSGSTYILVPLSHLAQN
Nature of the experiment: conclusion drawn from the cAMP bioassay on Y-1 cells expressing the FSH receptor; no direct binding assay described. As to the method: Bioactivity of the hFSH analogues was evaluated using Y-1 cells transfected with the FSH receptor. Y-1 cell cultures were mixed with the fusion protein and native pituitary hFSH (control) at varying concentrations and media was assayed for cAMP activity as described in Bouloux et al, 2001.
Figure 8: FIG. 8: In vitro bioassay of hormone activity. cAMP concentration (fmol/ml) was quantitated in Y1 cells expressing the FSH receptor after treatment with the indicated amount of either pituitary FSH (PFSH) or the FSH analogue, β-hFSH-CTP-α-hFSH (rFSH-CTP).
The bioactivity of the β-hFSH-CTP-α analogue was first assessed by an assay of hFSH receptor activity. In this assay, a recombinant native hFSH receptor is expressed in a suitable host cell and cAMP induction is measured following incubation with hormone (Lindau-Shepard et al, 2001).

B1: β-hFSH-CTP-α-hFSH (ligand)
chain: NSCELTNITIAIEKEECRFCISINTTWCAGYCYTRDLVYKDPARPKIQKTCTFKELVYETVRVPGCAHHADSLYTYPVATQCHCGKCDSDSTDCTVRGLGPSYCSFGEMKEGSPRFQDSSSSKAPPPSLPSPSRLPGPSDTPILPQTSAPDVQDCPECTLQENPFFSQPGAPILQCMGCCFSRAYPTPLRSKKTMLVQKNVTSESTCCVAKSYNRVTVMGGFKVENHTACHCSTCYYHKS
notes: Secreted from CHO-K1 cells and purified on an A201 column; also called β-hFSH-CTP-α analogue; β-hFSH-CTP-α fusion protein
Turning to B1, the binding result is on record as “binds”.
